Measurements from US20180142018A1 (NOVIMMUNE, published 2018).
Numbering of substitutions follows the chain as printed.

T1: cynomolgus CD19 (cynomolgus monkey, UniProt A0A2K5W8L9 20-557)
T1 construct: whole, on cells; also called cynoCD19; cynomolgus monkey CD19
T1 sequence: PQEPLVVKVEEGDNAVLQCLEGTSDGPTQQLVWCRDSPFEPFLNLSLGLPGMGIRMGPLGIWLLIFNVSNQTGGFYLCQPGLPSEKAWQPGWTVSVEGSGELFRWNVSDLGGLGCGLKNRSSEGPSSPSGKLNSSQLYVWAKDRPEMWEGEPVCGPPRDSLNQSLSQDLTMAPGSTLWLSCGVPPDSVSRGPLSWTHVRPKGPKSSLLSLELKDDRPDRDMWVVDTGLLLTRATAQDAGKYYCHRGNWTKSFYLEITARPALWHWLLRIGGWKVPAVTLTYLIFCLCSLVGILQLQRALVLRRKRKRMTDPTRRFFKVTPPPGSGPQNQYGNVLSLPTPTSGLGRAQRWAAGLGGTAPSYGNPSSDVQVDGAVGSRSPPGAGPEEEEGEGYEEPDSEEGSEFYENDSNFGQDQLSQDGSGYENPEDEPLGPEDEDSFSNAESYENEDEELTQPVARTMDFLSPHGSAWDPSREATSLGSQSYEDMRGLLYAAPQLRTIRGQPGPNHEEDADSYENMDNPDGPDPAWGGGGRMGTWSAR

T2: human CD19 (human, UniProt P15391 20-556)
T2 construct: whole, on cells; also called huCD19
T2 sequence (looked up): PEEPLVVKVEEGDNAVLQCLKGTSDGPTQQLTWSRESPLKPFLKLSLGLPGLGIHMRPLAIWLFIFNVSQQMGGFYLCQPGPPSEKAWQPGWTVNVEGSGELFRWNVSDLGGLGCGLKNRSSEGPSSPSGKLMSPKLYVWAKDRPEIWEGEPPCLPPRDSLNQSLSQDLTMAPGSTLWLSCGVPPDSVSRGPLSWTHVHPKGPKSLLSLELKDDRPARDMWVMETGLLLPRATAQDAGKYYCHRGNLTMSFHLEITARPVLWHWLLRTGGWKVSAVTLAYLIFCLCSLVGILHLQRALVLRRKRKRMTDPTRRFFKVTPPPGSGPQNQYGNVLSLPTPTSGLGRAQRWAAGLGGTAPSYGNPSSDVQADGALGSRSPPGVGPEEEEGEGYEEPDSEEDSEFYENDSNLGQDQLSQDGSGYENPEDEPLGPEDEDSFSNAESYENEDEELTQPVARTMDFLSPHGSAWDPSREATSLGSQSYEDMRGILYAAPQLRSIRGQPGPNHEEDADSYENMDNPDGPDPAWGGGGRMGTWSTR

B1: 7F11 antibody (antibody, human IgG1, V domains shown)
VH: EVQLVQSGAEVKKPGESLKISCKGSGYSFTSYWIGWVRQMPGKGLEWMGIIYPGDSDTRYSPSFQGQVTISADKSISTAYLQWSSLKASDTAMYYCARGVSGIYNLHGFDIWGQGTLVTVSS
VL: DIQMTQSPSSLSASVGDRVTITCRASQSISSYLNWYQQKPGKAPKLLIYAASSLQSGVPSRFSGSGSGTDFTLTISSLQPEDFATYYCQQGMWDNPFTFGQGTKVEIK
notes: also called human IgG1 7F11 anti-CD19 antibody
B2: 5F5 antibody (antibody, human IgG1, V domains shown)
VH: B1 VH with V100I
VL: B1 VL with G91A, M92S, W93L, N95S, F97L
notes: also called human IgG1 5F5 anti-CD19 antibody
B3: 9G8 antibody (antibody, human IgG1, V domains shown)
VH: B1 VH
VL: B1 VL with M92R, W93F, D94G, N95S
notes: also called human IgG1 9G8 anti-CD19 antibody
B4: F6 antibody (antibody, human IgG1, V domains shown)
VH: EVQLVQSGAEVKKPGESLKISCKGSGYSFTSYWIGWVRQMPGKGLEWMGIIYPGDSDTRYSPSFQGQVTISADKSISTAYLQWSSLKASDTAMYYCARVWYYDFWSGADAFDIWGQGTLVTVSS
VL: EIVMTQSPATLSVSPGERATLSCRASQSVSSNLAWYQQKPGQAPRLLIYGASTRATGIPARFSGSGSGTEFTLTISSLQSEDFAVYYCQQGSLEAPQTFGQGTKVEIK
notes: also called human IgG1 F6 anti-CD19 antibody
B5: 7F1 antibody (antibody, human IgG1, V domains shown)
VH: EVQLVQSGAEVKKPGESLKISCKGSGYSFTSYWIGWVRQMPGKGLEWMGIIYPGDSDTRYSPSFQGQVTISADKSISTAYLQWSSLKASDTAMYYCARGDYWTGFAYWGQGTLVTVSS
VL: QSVLTQPPSVSAAPGQKVTISCSGSSSNIGNNYVSWYQQLPGTAPKLLIYDNNKRPSGIPDRFSGSKSGTSATLGITGLQTGDEADYYCGTWDLGWNSVFGGGTKLTVL
notes: also called human IgG1 7F1 anti-CD19 antibody
B6: 10D8 antibody (antibody, human IgG1, V domains shown)
VH: QVQLVQSGAEVKKPGSSVKVSCKASGGTFSSYAISWVRQAPGQGLEWMGGIIPIFGTANYAQKFQGRVTITADESTSTAYMELSSLRSEDTAVYYCARDRGYDYVWGSYRYGAFDIWGQGTLVTVSS
VL: QSALTQPASVSGSPGQSITISCTGTSSDVGGYNYVSWYQQHPGKAPKLMIYEVSNRPSGVSNRFSGSKSGNTASLTISGLQAEDEADYYCSSYDVWVPHMVFGGGTKLTVL
notes: also called human IgG1 10D8 anti-CD19 antibody

biological target: T1, cynomolgus CD19; experiment: FACS on PBMC CD20+ B lymphocytes; human over cynomolgus, told of the group of anti-CD19 antibodies
Method: (§1) The ability of various anti-CD19 antibodies of the disclosure to bind various peripheral blood mononuclear cells (PBMC). Human and cynomolgus PBMC from frozen aliquots in citrate buffer were tested. […] The PBMC were labelled with anti-CD20-PE monoclonal antibody (mAb), anti-CD14-FITC mAb, and anti-CD3-PerCP mAb cross-reactive both to human and cynomolgus species. Cell surface bound hIgG1 were detected with a mouse anti-human IgG Fc-APC mAb. FACS gating was performed with the anti-CD20 mAb for the B lymphocyte population, with the anti-CD3 for the T lymphocyte population and with anti-CD14 for the monocyte population.

Row | Binder | fold higher binding on human than on cynomolgus PBMC [fold]
1 | B1 | ≤ 10
2 | B2 | ≤ 10
3 | B3 | ≤ 10
4 | B4 | ≤ 10

biological target: T2, human CD19; experiment: FACS on human B lymphocyte cell lines (Raji, Ramos, Nalm6, Su-DHL6, Su-DHL4, Mec2); binding lost on CD19-silenced Raji siRNA
Method: The ability of various anti-CD19 antibodies of the disclosure to bind various human B lymphocyte cell lines was evaluated. In particular, the human IgG1 5F5, 7F11, 9G8, F6, 7F1, and 10D8 anti-CD19 antibodies were evaluated for their abilities to bind (i) six human B lymphocyte cell lines: Raji, Ramos, Nalm6, Su-DHL6, Su-DHL4, and Mec2, (ii) a CD19 silenced B cell line: Raji siRNA; and a negative cell line (Jurkat). All incubations were prepared in FACS buffer (PBS, BSA 2%) at 4° C. Fc receptors on B cells were blocked with 10% mouse serum. Four doses of hIgG1 were tested: 10, 1, 0.1 and 0.01 μg/mL. Cell surface bound hIgG1 were detected with a mouse anti-human IgG Fc-PE mAb.

Row | Binder | binding result
5 | B2 | binds

biological target: T2, human CD19; experiment: FACS on human PBMC gated on CD20+ B lymphocytes, 30 and 3 µg/mL
Method: as §1

Row | Binder | binding result
6 | B1 | binds
7 | B3 | binds
8 | B4 | binds
9 | B5 | binds
10 | B6 | binds
